The source of these data is patent US20250163169.

In data set [1] the target is T1, 43-mer covering the stalk region of CD95L (residue 103 to residue 145).
T1 chain: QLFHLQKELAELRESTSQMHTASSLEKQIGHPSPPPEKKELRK

For the next data set, the target named is T2, Recombinant Ig-CD95L.
T2 chain: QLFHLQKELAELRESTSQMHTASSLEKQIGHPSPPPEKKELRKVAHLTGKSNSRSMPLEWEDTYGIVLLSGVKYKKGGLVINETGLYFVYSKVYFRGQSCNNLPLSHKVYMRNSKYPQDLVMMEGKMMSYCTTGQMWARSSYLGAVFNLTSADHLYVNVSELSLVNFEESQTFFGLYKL

B1: MMP2 (protein)
chain: YNFFPRKPKWDKNQITYRIIGYTPDLDPETVDDAFARAFQVWSDVTPLRFSRIHDGEADIMINFGRWEHGDGYPFDGKDGLLAHAFAPGTGVGGDSHFDDDELWTLGEGQVVRVKYGNADGEYCKFPFLFNGKEYNSCTDTGRSDGFLWCSTTYNFEKDGKYGFCPHEALFTMGGNAEGQPCKFPFRFQGTSYDSCTTEGRTDGYRWCGTTEDYDRDKKYGFCPETAMSTVGGNSEGAPCVFPFTFLGNKYESCTSAGRSDGKMWCATTANYDDDRKWGFCPDQGYSLFLVAAHEFGHAMGLEHSQDPGALMAPIYTYTKNFRLSQDDIKGIQELYGASPDIDLGTGPTPTLGPVTPEICKQDIVFDGIAQIRGEIFFFKDRFIWRTVTPRDKPMGPLLVATFWPELPEKIDAVYEAPQEEKAVFFAGNEYWIYSASTLERGYPKPLTSLGLPPDVQRVDAAFNWSKNKKTYIFAGDKFWRYNEVKKKMDPGFPKLIADAWNAIPDNLDAVVDLQGGGHSYFFKGAYYLKLENQSLKSVKFGSIKSDWLGC
For the protein B1, the “percentage of degradation of the 43-mer (LC-MS/MS)” value (from here on “percentage”) in data set [1] is “more of 20% of cleavage”. Besides, the “cleavage of Ig-CD95L (western blotting)” value with Recombinant Ig-CD95L is “Using this Ig-CD95L, we showed that MMP2 and MMP3 can cleave CD95L”.

B2: MMP7 (protein)
chain: YSLFPNSPKWTSKVVTYRIVSYTRDLPHITVDRLVSKALNMWGKEIPLHFRKVVWGTADIMIGFARGAHGDSYPFDGPGNTLAHAFAPGTGLGGDAHFDEDERWTDGSSLGINFLYAATHELGHSLGMGHSSDPNAVMYPTYGNGDPQNFKLSQDDIKGIQKLYGKRSNSRKK
With B2, in data set [1], the “percentage” value is “more of 20% of cleavage”.

B3: ADAM10 (protein)
chain: TTSAEKNTCQLYIQTDHLFFKYYGTREAVIAQISSHVKAIDTIYQTTDFSGIRNISFMVKRIRINTTADEKDPTNPFRFPNIGVEKFLELNSEQNHDDYCLAYVFTDRDFDDGVLGLAWVGAPSGSSGGICEKSKLYSDGKKKSLNTGIITVQNYGSHVPPKVSHITFAHEVGHNFGSPHDSGTECTPGESKNLGQKENGNYIMYARATSGDKLNNNKFSLCSIRNISQVLEKKRNNCFVESGQPICGNGMVEQGEECDCGYSDQCKDECCFDANQPEGRKCKLKPGKQCSPSQGPCCTAQCAFKSKSEKCRDDSDCAREGICNGFTALCPASDPKPNFTDCNRHTQVCINGQCAGSICEKYGLEECTCASSDGKDDKELCHVCCMKKMDPSTCASTGSVQWSRHFSGRTITLQPGSPCNDFRGYCDVFMRCRLVDADGPLARLKKAIFSPELYENIAE
B3: the “percentage” value in data set [1] is recorded as “more of 20% of cleavage”.

B4: MMP12 (protein)
chain: GPVWRKHYITYRINNYTPDMNREDVDYAIRKAFQVWSNVTPLKFSKINTGMADILVVFARGAHGDFHAFDGKGGILAHAFGPGSGIGGDAHFDEDEFWTTHSGGTNLFLTAVHEIGHSLGLGHSSDPKAVMFPTYKYVDINTFRLSADDIRGIQSLYGDPKENQRLPNPDNSEPALCDPNLSFDAVTTVGNKIFFFKDRFFWLKVSERPKTSVNLISSLWPTLPSGIEAAYEIEARNQVFLFKDDKYWLISNLRPEPNYPKSIHSFGFPNFVKKIDAAVFNPRFYRTYFFVDNQYWRYDERRQMMDPGYPKLITKNFQGIGPKIDAVFYSKNKYYYFFQGSNQFEYDFLLQRITKTLKSNSWFGC
For B4, the “percentage” value in data set [1] is recorded as “more of 20% of cleavage”.
